# What was measured:
# [1] = system: S. aureus (strain RN6390, USA 300, R 2932, R 2952, R 3000) biofilms; experiment: Biofilm disruption (Live/Dead BacLight staining and CFU count); format: cell-based, Staphylococcus aureus; settings: 24 h biofilms treated for 30 min
# Procedure: FIGS. 2A-2E depicts the biofilm disruption activity of chimeric Ply187AN-KSH3b. In FIG. 2A-2E, either chimeric Ply187AN-KSH3b or EB (EB C) or Gentamicin (for MDR/MRSA strains/isolates) was applied to cover slips containing S. aureus RN6390 (FIG. 2A), USA 300 (FIG. 2B), R 2932 (FIG. 2C), R 2952 (FIG. 2D) and R3000 (FIG. 2E) biofilms for 30 min. Bacterial killing was assessed via Live/Dead™ staining and subsequent fluorescence microscopy. FIG. 2F depicts the viability of biofilm associated bacteria enumerated by CFU count. Error bars represent the mean±SEM of two independent experiments performed in triplicate.
# Biofilm disruption by the chimeric Ply187AN-KSH3b was observed using Live/Dead BacLight™ staining which takes advantage of SYTO™ 9, a green-fluorescent nucleic acid stain and propidium iodide that fluoresces red. SYTO™ 9 labels a bacterial population with an intact membrane and fluoresces green. In contrast, propidium iodide penetrates bacteria with damaged membranes and fluoresces red. Briefly, static biofilms of S. aureus (strain RN6390, USA 300, R 2932, R 2952, R 3000) were grown on glass cover slips in 6 well tissue culture plates in fresh TSB media seeded with S. aureus. After incubation at 37° C. for 24 h, the biofilms were treated for an additional 30 min with chimeric Ply187AN-KSH3b (as per MIC) diluted in EB or with EB/gentamicin alone. The biofilms were then stained with the Live/Dead BacLight™ bacterial viability kit (Invitrogen, Carlsbad, Calif.), per manufacturer's instruction. The cover slips were washed three times with PBS to remove excess stain and cell debris, mounted with mounting oil on a glass slide, and examined with an Eclipse 90i fluorescence microscope (Nikon, Melville, N.Y.).
# [2] = system: S. aureus strains/isolates RN6390, USA 300, R2932, R2952 and R3000; experiment: Turbidity reduction assay; format: cell-based, Staphylococcus aureus; settings: at MIC, measured every 5 min up to 1 h
# Procedure: Error bars represent SEM for three independent experiments performed in triplicates. […] Cells surviving at half (½) of the MIC value were used as an inoculum for each subsequent round of exposure. The change in susceptibility is recorded and presented as fold change resistance from day 1 to 10 of exposure and also after 5 days of growth (without any selection pressure) following the 10th day (represented as 10+5). The data represent means±SEM of two independent experiments performed in triplicate.
# To verify and quantify the lytic activity against live S. aureus, we have tested Ply187AN-KSH3b in the Turbidity Reduction Assay. The turbidity assay measures the drop in optical density (OD) resulting from lysis of the target bacteria with the phage endolysin-derived protein. Turbidity reduction assays by chimeric Ply187AN-KSH3b were performed in a 96 well plate as described previously by Becker et al. (2009a, 2009b, supra). Briefly, S. aureus strains/isolates RN6390, USA 300, and clinical isolates R2932, R2952 and R3000 were grown to logarithmic phase (OD600 0.4-0.6) at 37° C. in tryptic Soy broth (TSB). The culture was harvested by centrifugation and the pellet was resuspended in assay buffer (400 mM NaCl, 20 mM Tris HCl, 1% glycerol, pH 7.5). […] The reduction in the turbidity was measured after every 5 min up to 1 h using a micro plate reader. […]
molecule,measurement,setting,value
"Ply187AN-KSH3b: staphylococcal peptidoglycan hydrolase fusion protein: endopeptidase domain of prophage endolysin Ply187 plus SH3b cell wall-binding domain of phage K endolysin LysK (SEQ ID NO:1) (protein, Chemically Synthesized Fusion Protein) MALPKTGKPTAKQVVDWAINLIGSGVDVDGYYGRQCWDLPNYIFNRYWNFKTPGNARDMAWYRYPEGFKVFRNTSDFVPKPGDIAVWTGGNYNWNTWGHTGIVVGPSTKSYFYSVDQNWNNSNSYVGSPAAKIKHSYFGVTHFVRPAYKAEPKPTPPLESTPATRPVTGSWKKNQYGTWYKPENATFVNGNQPIVTRIGSPFLNAPVGGNLPAGATIVYDEVCIQAGHIWIGYNAYNGNRVYCPVRTCQGVPPNQIPGVAWGVFKVEHHHHHH",biofilm disruption by Live/Dead staining,[1],successfully disrupted biofilms
same,CFU counts of biofilm associated bacteria,[1]; all strains tested,almost zero
same,reduction in the turbidity of suspension culture,[2],time-dependent reduction in the turbidity

# Source: patent US20150335719A1, “Intravitreal Injection of a Chimeric Phage Endolysin Ply187; Protection from Staphylococcus aureus Endophthalmitis” (priority 2014, published 2015)
